# According to the RNAGym collection of RNA variant scans (doi:10.7554/elife.90254):
# B1: OR4K15 (parent)
# chain: GUUAACGGUCAUAGGCCAUGGAAACUAGGAGCACCAUUUCGCUGCCAGUGAAGAAAUGAACAAAGAAAAUCUGGGCCAGGCAGGCAUCAAAAGAAAUAGUCUUGCGCUCAACCAGAAAGUCUGUAAUCAUUUUAAGGGUA
# Variants of: B1
# Experiment: self-cleavage, relative activity (ratio to wild type); higher = more cleavage; in vitro, sequencing; the parent is a self-cleaving ribozyme
row,Variant,self-cleavage
1,GUUAACGGUCAUAGGCCAUGGAAACUAGGAGCACCAUUUCGCCGCCAGUGAAGAAAUGAACGAAGAAAAUCUGGGCCAGGCAGGCAUCAAAAGAAAUAGUCUUGCGCUCAACCAGAAAGUCUGUAAUCAUUUUAAGGGUA [U43C A62G],1.29
2,GUUAACGGUCAUAGGCCAUGGAAACUAGGAGCACCAUUUCGCCGCCAGUGAAGAAAUGAACUAAGAAAAUCUGGGCCAGGCAGGCAUCAAAAGAAAUAGUCUUGCGCUCAACCAGAAAGUCUGUAAUCAUUUUAAGGGUA [U43C A62U],2.19
3,GUUAACGGUCAUAGGCCAUGGAAACUAGGAGCACCAUUUCGCCGCCAGUGAAGAAAUGAACCAAGAAAAUCUGGGCCAGGCAGGCAUCAAAAGAAAUAGUCUUGCGCUCAACCAGAAAGUCUGUAAUCAUUUUAAGGGUA [U43C A62C],1.57
4,GUUAACGGUCAUAGGCCAUGGAAACUAGGAGCACCAUUUCGCAGCCAGUGAAGAAAUGAACAAAGAAAAUCUGGGCCAGGCAGGCAUCAAAAGAAAUGGUCUUGCGCUCAACCAGAAAGUCUGUAAUCAUUUUAAGGGUA [U43A A98G],1.07
5,GUUAACGGUCAUAGGCCAUGGAAACUAGGAGCACCAUUUCGCCGCCAGUGAAGAAAUGGACAAAGAAAAUCUGGGCCAGGCAGGCAUCAAAAGAAAUAGUCUUGCGCUCAACCAGAAAGUCUGUAAUCAUUUUAAGGGUA [U43C A59G],0.68
6,GUUAACGGUCAUAGGCCAUGGAAACUAGGAGCACCAUUUCGCAGCCAGUGAAAAAAUGAACAAAGAAAAUCUGGGCCAGGCAGGCAUCAAAAGAAAUAGUCUUGCGCUCAACCAGAAAGUCUGUAAUCAUUUUAAGGGUA [U43A G53A],1.84
7,GUUAACGGUCAUAGGCCAUGGAAACUAGGAGCACCAUUUCGCAGCCAGUGAAGAAAUGAACAAAGAAAAUCUGGGCCAGGCAGGCAUCAAAAGAAAUAGUCUUGCGCUCUACCAGAAAGUCUGUAAUCAUUUUAAGGGUA [U43A A110U],2.05
8,GUUAACGGUCAUAGGCCAUGGAAACUAGGAGCACCAUUUCGCAGCCAGUGAAGAAAUGAACAAAGAAAAACUGGGCCAGGCAGGCAUCAAAAGAAAUAGUCUUGCGCUCAACCAGAAAGUCUGUAAUCAUUUUAAGGGUA [U43A U70A],0.37
9,GUUAACGGUCAUAGGCCAUGGAAACUAGGAGCACCAUUUCGCAGCCAGUGAAGAAAUGAACAAAGAAAAUCUGGGCCAGGCAGGCAUCAAAAGAAAUAGUCUUGCGCUCAACCAGAAAGUCUGUAAUCGUUUUAAGGGUA [U43A A129G],0.65
10,GUUAACGGUCAUAGGCCAUGGAAACUAGGAGCACCAUUUCGCAGCCAGUGAAGAAAUGAACAAAGAAAAUCAGGGCCAGGCAGGCAUCAAAAGAAAUAGUCUUGCGCUCAACCAGAAAGUCUGUAAUCAUUUUAAGGGUA [U43A U72A],0.2
11,GUUAACGGUCAUAGGCCAUGGAAACUAGGAGCACCAUUUCGCAGCCAGUGAAGAAAUGAACAAAGAAAAUCCGGGCCAGGCAGGCAUCAAAAGAAAUAGUCUUGCGCUCAACCAGAAAGUCUGUAAUCAUUUUAAGGGUA [U43A U72C],0.27
12,GUUAACGGUCAUAGGCCAUGGAAACUAGGAGCACCAUUUCGCAGCCAGUGAAGAAAUGAACAAAGAAAAUCUGGGCCAGGCAGGCAUCAAAAGAAAUAGUCUUGCGCCCAACCAGAAAGUCUGUAAUCAUUUUAAGGGUA [U43A U108C],0.02
13,GUUAACGGUCAUAGGCCAUGGAAACUAGGAGCACCAUUUCGCAGCCAGUGAAGAAAUGAACAAAGAAAAUCUGGGCCAGGCAGGCAUCAAAAGAAACAGUCUUGCGCUCAACCAGAAAGUCUGUAAUCAUUUUAAGGGUA [U43A U97C],0.92
14,GUUAACGGUCAUAGGCCAUGGAAACUAGGAGCACCAUUUCGCAACCAGUGAAGAAAUGAACAAAGAAAAUCUGGGCCAGGCAGGCAUCAAAAGAAAUAGUCUUGCGCUCAACCAGAAAGUCUGUAAUCAUUUUAAGGGUA [U43A G44A],1.06
15,GUUAACGGUCAUAGGCCAUGGAAACUAGGAGCACCAUUUCGCCGCCAGUGAGGAAAUGAACAAAGAAAAUCUGGGCCAGGCAGGCAUCAAAAGAAAUAGUCUUGCGCUCAACCAGAAAGUCUGUAAUCAUUUUAAGGGUA [U43C A52G],1.49
16,GUUAACGGUCAUAGGCCAUGGAAACUAGGAGCACCAUUUCGCCGCCAGUGAUGAAAUGAACAAAGAAAAUCUGGGCCAGGCAGGCAUCAAAAGAAAUAGUCUUGCGCUCAACCAGAAAGUCUGUAAUCAUUUUAAGGGUA [U43C A52U],1.51
17,GUUAACGGUCAUAGGCCAUGGAAACUAGGAGCACCAUUUCGCAGCCAGAGAAGAAAUGAACAAAGAAAAUCUGGGCCAGGCAGGCAUCAAAAGAAAUAGUCUUGCGCUCAACCAGAAAGUCUGUAAUCAUUUUAAGGGUA [U43A U49A],0.87
18,GUUAACGGUCAUAGGCCAUGGAAACUAGGAGCACCAUUUCGCAGCCAGUGAAGAAAUGAACAAAGAAAAUCUGGGCCAGGCAGGCAUCAAAAGAAAUAGUCUUGCGCUCAACCAGAAAGUCUGUAAUCAUUUCAAGGGUA [U43A U133C],2.13
19,GUUAACGGUCAUAGGCCAUGGAAACUAGGAGCACCAUUUCGCCGCCAGUGAAGAAAUGAGCAAAGAAAAUCUGGGCCAGGCAGGCAUCAAAAGAAAUAGUCUUGCGCUCAACCAGAAAGUCUGUAAUCAUUUUAAGGGUA [U43C A60G],1.43
20,GUUAACGGUCAUAGGCCAUGGAAACUAGGAGCACCAUUUCGCAGCCAGUGAAGAAAAGAACAAAGAAAAUCUGGGCCAGGCAGGCAUCAAAAGAAAUAGUCUUGCGCUCAACCAGAAAGUCUGUAAUCAUUUUAAGGGUA [U43A U57A],1.79
21,GUUAACGGUCAUAGGCCAUGGAAACUAGGAGCACCAUUUCGCAGCCAGUGAAGAAAUGAACAAAAAAAAUCUGGGCCAGGCAGGCAUCAAAAGAAAUAGUCUUGCGCUCAACCAGAAAGUCUGUAAUCAUUUUAAGGGUA [U43A G65A],2.07

row,Variant,self-cleavage
1,GUUAACGGUCAUAGGCCAUGGAAACUAGGAGCACCAUUUCGCAGCCAGUGAAGAAAUGAACAAAGAAAAUCUGGGCCAGGCAGGCAUCAAAAGAAAUAGUCUUGCGCUCAACCAGAAAGUCUGUAAUCAUUUUGAGGGUA [U43A A134G],1.81
2,GUUAACGGUCAUAGGCCAUGGAAACUAGGAGCACCAUUUCGCAGCCAGUGAAGAAAUGAACAAAGAAAAUCUGGGCCAGGCAGGCAUCAAAAGAAAUAGUCUUGCGCUCAACCAGAAAGUCUGUAAUCAUUUUAAGGGUG [U43A A140G],2.11
3,GUUAACGGUCAUAGGCCAUGGAAACUAGGAGCACCAUUUCGCAGCCAGUGAAGAAAUGAACAAAGAAAAUCUGGGCCAGGCAGGCAUCAAAAGAAAUAGUCUUGCGCUCAACCGGAAAGUCUGUAAUCAUUUUAAGGGUA [U43A A114G],0.86
4,GUUAACGGUCAUAGGCCAUGGAAACUAGGAGCACCAUUUCGCAGCCAGUGAAGAAAUGAACAAAGAAAAUCUGGGCCAGGCAGGCAUCAAAAGAAAUAGUCUUGCGCUCAACCAGAAAGUCUGUAAUCAUCUUAAGGGUA [U43A U131C],0.91
5,GUUAACGGUCAUAGGCCAUGGAAACUAGGAGCACCAUUUCGCAGCCAGUGAAGAAAUGAACAAAGAAAAUCUGGGCCAGGCAGGCAUCAAAAGAAAUAGUCUUGCGCUCAACCAGGAAGUCUGUAAUCAUUUUAAGGGUA [U43A A116G],0.55
6,GUUAACGGUCAUAGGCCAUGGAAACUAGGAGCACCAUUUCGCAGCCAGUGAAGAAAUGAACAAAGAAAAUCUGGGCCAGGCAGGCAUCAAAAGAAAUAGUCUCGCGCUCAACCAGAAAGUCUGUAAUCAUUUUAAGGGUA [U43A U103C],1.1
7,GUUAACGGUCAUAGGCCAUGGAAACUAGGAGCACCAUUUCGCCGCCUGUGAAGAAAUGAACAAAGAAAAUCUGGGCCAGGCAGGCAUCAAAAGAAAUAGUCUUGCGCUCAACCAGAAAGUCUGUAAUCAUUUUAAGGGUA [U43C A47U],0.96
8,GUUAACGGUCAUAGGCCAUGGAAACUAGGAGCACCAUUUCGCAGCCAGUGAAGAAAUGAACAAAGAAAAUCUGGGCCAGGCAGGCAUCAAAAGCAAUAGUCUUGCGCUCAACCAGAAAGUCUGUAAUCAUUUUAAGGGUA [U43A A94C],1.01
9,GUUAACGGUCAUAGGCCAUGGAAACUAGGAGCACCAUUUCGCAGCCAGUGAAGAAAUGAACAAAGAAAAUCUGGGCCAGGCAGGCAUCAAAAGAAAUAGUCUUGCGCUCAGCCAGAAAGUCUGUAAUCAUUUUAAGGGUA [U43A A111G],0.03
10,GUUAACGGUCAUAGGCCAUGGAAACUAGGAGCACCAUUUCGCAGCCAGUGAAGAAAUGAACAAAGAAAAUCUGGGCCAGGCAGGCAUCAAAAGAAAUAGUCUUGCGCUCACCCAGAAAGUCUGUAAUCAUUUUAAGGGUA [U43A A111C],0.03
11,GUUAACGGUCAUAGGCCAUGGAAACUAGGAGCACCAUUUCGCAGCCAGUGAAGAAAUGAACAAAGAAAAUCUGGGCCAGGCAGGCAUCAAGAGAAAUAGUCUUGCGCUCAACCAGAAAGUCUGUAAUCAUUUUAAGGGUA [U43A A91G],0.55
12,GUUAACGGUCAUAGGCCAUGGAAACUAGGAGCACCAUUUCGCAGCCAGUGAAGAAAUGAACAAAGAAAAUCUGGGCCAGGCAAGCAUCAAAAGAAAUAGUCUUGCGCUCAACCAGAAAGUCUGUAAUCAUUUUAAGGGUA [U43A G83A],1.97
13,GUUAACGGUCAUAGGCCAUGGAAACUAGGAGCACCAUUUCGCAGCCAGUGAAGAAAUGAACAAAGAAAAUCUGGGCCAGGCAGGCAUCAAAAGAAAUAGUCUUGCGCUCAACCAGAAAGUCCGUAAUCAUUUUAAGGGUA [U43A U122C],1.85
14,GUUAACGGUCAUAGGCCAUGGAAACUAGGAGCACCAUUUCGCAGCCAGUGAAGAAAUGAACAAAGAAAAUCUGGGCCAGGCAGGCAUCAAAAGAAAUAGUCUUGCGCUCAACCAGAGAGUCUGUAAUCAUUUUAAGGGUA [U43A A117G],2.17
15,GUUAACGGUCAUAGGCCAUGGAAACUAGGAGCACCAUUUCGCAGCCAGUGAAGAAAUGAACAAAGAAAAUCUGGGCCAGGCAGGCAUCAAAAGAAAUAGUCUUGCGCUCAACCAGAUAGUCUGUAAUCAUUUUAAGGGUA [U43A A117U],1.18
16,GUUAACGGUCAUAGGCCAUGGAAACUAGGAGCACCAUUUCGCAGCCAGUGAAGAAAUGAACAAAGAAAAUCUGGGCCAGGCAGGCAUCAAAAGAAAUAGUCUUGUGCUCAACCAGAAAGUCUGUAAUCAUUUUAAGGGUA [U43A C105U],0.1
17,GUUAACGGUCAUAGGCCAUGGAAACUAGGAGCACCAUUUCGCAGCCAGUGAAGAAAUGAACAAAGAAAAUCUGGGCCAGGCAGGCAUCAAAAGAAAUAGUCUUGCGCUCAACCAGAAGGUCUGUAAUCAUUUUAAGGGUA [U43A A118G],1.25
18,GUUAACGGUCAUAGGCCAUGGAAACUAGGAGCACCAUUUCGCAGCCAGUGAAGAAAUGAACAAAGAAAAUCUGGGCCAGGCAGGCAUCAAAAGAAAUAGUCUUGCGCUCAACCAGAAUGUCUGUAAUCAUUUUAAGGGUA [U43A A118U],0.9
19,GUUAACGGUCAUAGGCCAUGGAAACUAGGAGCACCAUUUCGCAGCCAGUGAAGAAAUGAACAAAGAAAAUCUGGGCCAGGCAGGCAUCAAAAGAAAUAGUCUUGCGCUCAACCAGAAAGUCUGUAAUAAUUUUAAGGGUA [U43A C128A],0.8
20,GUUAACGGUCAUAGGCCAUGGAAACUAGGAGCACCAUUUCGCCGCCAGUGUAGAAAUGAACAAAGAAAAUCUGGGCCAGGCAGGCAUCAAAAGAAAUAGUCUUGCGCUCAACCAGAAAGUCUGUAAUCAUUUUAAGGGUA [U43C A51U],1.35
